Molecular target: His-p65 fusion protein (UniProt Q04206 1-551)
Assay: pull-down

Sequence of His-p65 fusion protein (Q04206 whole entry, the tested form may be a part): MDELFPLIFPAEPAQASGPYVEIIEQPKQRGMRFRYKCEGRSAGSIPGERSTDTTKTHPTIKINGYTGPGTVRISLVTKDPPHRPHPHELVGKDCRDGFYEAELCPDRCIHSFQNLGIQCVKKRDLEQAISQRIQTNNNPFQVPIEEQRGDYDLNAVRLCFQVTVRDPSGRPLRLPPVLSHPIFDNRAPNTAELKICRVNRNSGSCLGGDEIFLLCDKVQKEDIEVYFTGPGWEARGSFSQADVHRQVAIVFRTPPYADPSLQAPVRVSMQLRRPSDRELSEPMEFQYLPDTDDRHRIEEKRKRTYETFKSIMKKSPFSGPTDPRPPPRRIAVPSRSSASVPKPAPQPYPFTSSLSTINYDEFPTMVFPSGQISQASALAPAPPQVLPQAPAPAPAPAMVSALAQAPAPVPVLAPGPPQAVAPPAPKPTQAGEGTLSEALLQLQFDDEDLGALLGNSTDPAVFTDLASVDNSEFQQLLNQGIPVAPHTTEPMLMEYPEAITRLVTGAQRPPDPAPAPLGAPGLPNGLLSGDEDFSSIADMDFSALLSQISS

- binding result: binds
B1: GST-RhoE recombinant protein (natural protein, UniProt P61587 1-244, looked up)
chain: MKERRASQKLSSKSIMDPNQNVKCKIVVVGDSQCGKTALLHVFAKDCFPENYVPTVFENYTASFEIDTQRIELSLWDTSGSPYYDNVRPLSYPDSDAVLICFDISRPETLDSVLKKWKGEIQEFCPNTKMLLVGCKSDLRTDVSTLVELSNHRQTPVSYDQGANMAKQIGAATYIECSALQSENSVRDIFHVATLACVNKTNKNVKRNKSQRATKRISHMPSRPELSAVATDLRKDKAKSCTVM

— paper PMC6532428 (Circulation, 2019)
